# US20250340608A1 (PROTAGONIST THERAPEUTICS, published 2025)
# Primed or numbered codes have the meaning given here. Side chains are listed from the residue outwards. * marks the point of attachment. PEG8″ = PEG8 spacer conjugated to the Lys side chain; Cyclohexanecarbonyl = O=C(C1CCCCC1)*; Palmitoyl = CCCCCCCCCCCCCCCC(=O)*; Me3Gly = C[N+](C)(C)CC(=O)*; Isovaleryl = CC(C)CC(=O)*; PEG2′ = not defined here; PEG3′ = not defined here; PEG4′ = not defined here
# T1: human ferroportin (SLC40A1) fused in frame with GFP, stably expressed in HEK293 cells (human, UniProt Q9NP59 1-571)
# T1 sequence (looked up): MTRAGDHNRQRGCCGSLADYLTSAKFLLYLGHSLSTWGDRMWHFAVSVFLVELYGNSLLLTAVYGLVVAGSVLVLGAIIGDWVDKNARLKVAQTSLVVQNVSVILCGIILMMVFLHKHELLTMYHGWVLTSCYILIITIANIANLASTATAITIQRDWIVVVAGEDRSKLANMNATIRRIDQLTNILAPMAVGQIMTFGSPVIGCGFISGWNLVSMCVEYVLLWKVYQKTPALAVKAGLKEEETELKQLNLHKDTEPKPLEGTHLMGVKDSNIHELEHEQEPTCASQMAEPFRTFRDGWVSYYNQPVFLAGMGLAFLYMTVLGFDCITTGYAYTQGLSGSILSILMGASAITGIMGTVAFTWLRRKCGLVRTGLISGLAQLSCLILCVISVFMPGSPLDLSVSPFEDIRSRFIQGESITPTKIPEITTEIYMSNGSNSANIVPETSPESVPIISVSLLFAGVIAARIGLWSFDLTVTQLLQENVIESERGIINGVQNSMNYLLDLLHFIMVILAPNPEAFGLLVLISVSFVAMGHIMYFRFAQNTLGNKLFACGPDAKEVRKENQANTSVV
# Molecular target: T1, human ferroportin (SLC40A1) fused in …
# Assay: cell-based or functional assay
Binder,Potency EC50 [nM],Potency EC50 (nM)
Isovaleryl-DTHFPCIKFGPRSK([PEG3′-Palmitoyl])GWVCK-NH2 (cysteine pairing not given here) [Compound 202],3,
Isovaleryl-DTHFPCIKFGPRSKGWVCK([PEG3′-Palmitoyl])-NH2 (cysteine pairing not given here) [Compound 203],4,
Isovaleryl-DTHFPCIK(Palmitoyl)FGPRSKGWVCK-NH2 (cysteine pairing not given here) [Compound 194],4,
DTHFPCIKFKPRSKGWVCK (PEG3-IVA on side chain of Lys 10; C-terminal amide) [Compound 210],457,
Isovaleryl-DTHFPCIIFGPRSRGWVCK(PEG2′)-NH2 (not fully specified (bridges); cysteine pairing not given here) [Compound 180],9,
Isovaleryl-DTHFPCIKFEPRSKGWCK-NH2 (not fully specified (bridges); cysteine pairing not given here) [Compound 183],17,
Isovaleryl-DTHFPCIKFGPRSK(Me3Gly)GWVCK-NH2 (cysteine pairing not given here) [Compound 157],18,
Isovaleryl-DTHFPCIKFGPK([PEG3′-Palmitoyl])SKGWVCK-NH2 (cysteine pairing not given here) [Compound 201],4,
H-DTHFPCIK(Isovaleryl)FGPRSKGWVCK-NH2 (cysteine pairing not given here) [Compound 204],> 300,
{Palmitoyl-PEG3′}-DTHFPCIKFGPRSKGWVCK-NH2 (cysteine pairing not given here) [Compound 217],,> 1000
H-DTHFPCIKFGPRSKGWVCK([PEG3′-Isovaleryl])-NH2 (cysteine pairing not given here) [Compound 213],233,
Isovaleryl-DTHFPCIKFC-NH2 (cysteine pairing not given here) [Compound 193],80,
H-DTHFPCIKFGPK([PEG3′-Isovaleryl])SKGWVCK-NH2 (cysteine pairing not given here) [Compound 211],> 300,
DTHFPCIKFKPRSKGWVCK (N-terminal isovaleric acid; PEG3-Palm on side chain of Lys 10; C-terminal amide) [Compound 200],6,
Isovaleryl-DTHFPICIFGPRSK(PEG4′)GWVC-NH2 (not fully specified (bridges); cysteine pairing not given here) [Compound 177],6,
{Isovaleryl-PEG3′}-DTHFPCIKFGPRSKGWVCK-NH2 (cysteine pairing not given here) [Compound 161],666,

Binder,Potency EC50 [nM],Potency EC50 (nM)
Isovaleryl-DTHFPCIIFGPRSRGWVCK(PEG8″)-NH2 (not fully specified (bridges); cysteine pairing not given here) [Compound 178],3,
Isovaleryl-DTHFPCIKFEPRSKGWVCK-NH2 (not fully specified (bridges); cysteine pairing not given here) [Compound 181],15,
Palmitoyl-DTHFPCIKFGPRSKGWVCK-NH2 (cysteine pairing not given here) [Compound 216],,> 1000
H-DTHFPCIK([PEG3′-Isovaleryl])FGPRSKGWVCK-NH2 (cysteine pairing not given here) [Compound 209],342,
H-DTHFPCIKFGPRSKGWVCK-NH2 (cysteine pairing not given here) [Compound 215],,> 1000
H-DTHFPCIKFGPRSK([PEG3′-Isovaleryl])GWVCK-NH2 (cysteine pairing not given here) [Compound 212],> 300,
Isovaleryl-DTHFPCIKFGPRSCK-NH2 (cysteine pairing not given here) [Compound 188],30,
Isovaleryl-DTHFPCIIFGPRSRGWVCK(PEG4′)-NH2 (not fully specified (bridges); cysteine pairing not given here) [Compound 179],4,
Isovaleryl-DTHFPCIKFEPRSKKWVCK-NH2 (not fully specified (bridges); cysteine pairing not given here) [Compound 214],15,
Isovaleryl-DTHFPCIIFGPRSKGWECK-NH2 (not fully specified (bridges); cysteine pairing not given here) [Compound 172],15,
DTHFPCIKFKPRSKGWVCK (not fully specified; IVA on side chain of Lys 10; C-terminal amide) [Compound 205],> 300,
Isovaleryl-DTHFPCIKFGPRSKGWVCK(Me3Gly)-NH2 (cysteine pairing not given here) [Compound 159],17,
Isovaleryl-DTHFPICIFGPRSK(PEG8″)GWVC-NH2 (not fully specified (bridges); cysteine pairing not given here) [Compound 176],6,
Cyclohexanecarbonyl-DTHFPCIKFGPRSKGWVCK-NH2 (not fully specified (bridges); cysteine pairing not given here) [Compound 168],30,
H-VDTHFPCIKFGPRSKGWVCK-NH2 (cysteine pairing not given here) [Compound 164],146,
Isovaleryl-DTHFPCIK([PEG3′-Palmitoyl])FGPRSKGWVCK-NH2 (cysteine pairing not given here) [Compound 199],7,
